Assays:
[1] = target: T1, Avi/his-CalR-Ins5 (CALRW28.004) (human, UniProt P27797 18-417, limits assumed); assay: SPR, forced degradation: Release
T1 construct: also called human CALRins5
T1 sequence (looked up): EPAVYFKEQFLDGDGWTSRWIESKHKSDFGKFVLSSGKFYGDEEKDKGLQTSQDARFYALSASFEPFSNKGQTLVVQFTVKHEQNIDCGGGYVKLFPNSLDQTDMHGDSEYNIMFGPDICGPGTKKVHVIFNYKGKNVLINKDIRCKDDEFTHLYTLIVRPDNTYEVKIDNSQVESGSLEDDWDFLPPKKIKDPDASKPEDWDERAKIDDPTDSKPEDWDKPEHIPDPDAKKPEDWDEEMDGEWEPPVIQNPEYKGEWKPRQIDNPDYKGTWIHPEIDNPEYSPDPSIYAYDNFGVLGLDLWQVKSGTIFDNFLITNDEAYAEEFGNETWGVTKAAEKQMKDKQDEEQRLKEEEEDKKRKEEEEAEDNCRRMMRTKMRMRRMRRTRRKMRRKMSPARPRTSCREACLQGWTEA

[2] = target: T2, Flag/6xhis-CALRdel52 (CALRW12.007) (human, UniProt P27797 18-417); assay: SPR, forced degradation: Release
T2 construct: also called human CALRdel52
T2 sequence (looked up): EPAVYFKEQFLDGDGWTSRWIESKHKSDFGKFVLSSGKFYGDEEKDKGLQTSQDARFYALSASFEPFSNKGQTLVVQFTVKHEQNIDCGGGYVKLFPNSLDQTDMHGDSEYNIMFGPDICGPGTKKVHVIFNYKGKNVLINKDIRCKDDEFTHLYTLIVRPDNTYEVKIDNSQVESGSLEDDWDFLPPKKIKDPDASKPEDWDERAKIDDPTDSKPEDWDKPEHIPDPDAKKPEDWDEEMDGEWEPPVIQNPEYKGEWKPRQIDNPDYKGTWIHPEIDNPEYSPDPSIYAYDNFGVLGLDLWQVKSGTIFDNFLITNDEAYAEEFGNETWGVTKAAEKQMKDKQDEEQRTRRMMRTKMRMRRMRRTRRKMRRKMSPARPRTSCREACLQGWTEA

[3] = target: T3, CD3EG-HSA-6xHis (CD3W220.002) (human, UniProt P07766 22-118; P09693 23-103); assay: SPR, forced degradation: Release
T3 construct: also called human CD3; not shown: human serum albumin (HSA); 6xHis tag

[4] = target: CALRmut on CD34+ cells isolated from CALRmut MPN patients; assay: cell-based or functional assay
[5] = target: T4, CALRins5 (mutant calreticulin, 5 base pair insertion, Type 2) expressed with MPL on engineered cancer cells (UniProt P27797 18-417); assay: cell-based or functional assay
T4 sequence (looked up): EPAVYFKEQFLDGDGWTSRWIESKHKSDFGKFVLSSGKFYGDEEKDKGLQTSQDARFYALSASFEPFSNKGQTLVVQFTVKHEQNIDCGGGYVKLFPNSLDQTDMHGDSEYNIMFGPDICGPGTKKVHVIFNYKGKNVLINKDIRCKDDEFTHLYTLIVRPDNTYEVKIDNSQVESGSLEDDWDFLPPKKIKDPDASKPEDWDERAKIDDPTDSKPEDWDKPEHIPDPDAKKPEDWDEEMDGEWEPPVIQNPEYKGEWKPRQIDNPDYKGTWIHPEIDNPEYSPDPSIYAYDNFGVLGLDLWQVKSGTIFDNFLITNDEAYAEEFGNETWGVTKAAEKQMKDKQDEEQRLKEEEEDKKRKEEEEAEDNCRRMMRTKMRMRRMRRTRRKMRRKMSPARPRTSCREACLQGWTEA

[6] = target: cyno FcRn (cynomolgus monkey, UniProt Q8SPV9 24-297; Q8SPW0 21-119, limits assumed); assay: FcRn binding, method not stated
[7] = target: T5, human FcRn (human, UniProt P55899 24-297; P61769 21-119, limits assumed); assay: FcRn binding, method not stated
T5 construct: Beta-2-microglobulin is not mentioned

[8] = target: T6, wild-type calreticulin (CALRwt) expressed with MPL in engineered cancer cells (UniProt P27797 18-417, limits assumed); assay: flow cytometry on OCI-M2 MPL CALRwt cells, 1 h at 37 C, AF647 secondary antibody, Geometric Mean
T6 construct: whole, on cells; also called OCI-M2 MPL CALRwt
T6 sequence (looked up): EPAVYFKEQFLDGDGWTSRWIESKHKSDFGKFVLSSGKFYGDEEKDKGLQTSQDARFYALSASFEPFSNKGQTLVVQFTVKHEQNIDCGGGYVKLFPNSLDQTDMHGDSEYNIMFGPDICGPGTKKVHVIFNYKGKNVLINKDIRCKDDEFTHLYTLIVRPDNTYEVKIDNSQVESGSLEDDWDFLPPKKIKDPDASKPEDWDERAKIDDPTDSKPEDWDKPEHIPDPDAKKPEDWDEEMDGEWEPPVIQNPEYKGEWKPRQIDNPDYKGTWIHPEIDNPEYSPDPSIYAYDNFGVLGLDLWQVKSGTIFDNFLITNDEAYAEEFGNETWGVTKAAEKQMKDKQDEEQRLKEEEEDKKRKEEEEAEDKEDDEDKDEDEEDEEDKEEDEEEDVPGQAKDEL

[9] = target: T4, CALRins5 (mutant calreticulin, 5 base …); assay: flow cytometry on ELF-153 MPL CALRins5 cells, 1 h at 37 C, AF647 secondary antibody, Geometric mean
Experimental: FIGS. 27A-27F depict binding of different CALRmutxCD3 antibodies to CALRmut-negative or CALRmut-positive cells. Flow cytometry was used to evaluate CALRmutxCD3 binding to CALRmut-negative and CALRmut-positive cancer cells in vitro. CALRmutxCD3 antibodies were tested on a panel of cell lines, engineered to express MPL and CALRmut, after 1 hour 37° C. incubation, with subsequent incubation with secondary AF647-labeled antibody. Geometric mean fluorescence intensity of AF647 was measured to determine antibody binding.

[10] = target: T4, CALRins5 (mutant calreticulin, 5 base …); assay: cell-based or functional assay; remark: listed apart in the source
[11] = target: T7, CALRdel52 (mutant calreticulin, 52 base pair deletion, Type 1) expressed with MPL on engineered cancer cells (UniProt P27797 18-417); assay: cell-based or functional assay
T7 sequence (looked up): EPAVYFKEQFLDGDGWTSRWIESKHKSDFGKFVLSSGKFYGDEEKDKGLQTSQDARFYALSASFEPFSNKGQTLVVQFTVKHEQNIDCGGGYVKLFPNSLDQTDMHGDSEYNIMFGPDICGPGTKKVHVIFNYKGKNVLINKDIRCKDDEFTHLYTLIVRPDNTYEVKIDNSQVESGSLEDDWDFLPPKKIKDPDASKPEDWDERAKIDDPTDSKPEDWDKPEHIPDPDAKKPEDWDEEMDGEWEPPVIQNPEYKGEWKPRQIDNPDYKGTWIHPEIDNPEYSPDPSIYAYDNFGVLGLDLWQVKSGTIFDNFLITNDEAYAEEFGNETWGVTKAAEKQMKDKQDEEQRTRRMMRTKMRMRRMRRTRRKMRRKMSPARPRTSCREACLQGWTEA

[12] = target: T8, CD3 on primary human pan T cells (human, UniProt P07766 23-207); assay: flow cytometry, CD3+ pan T cells of 6 healthy donors; average over pan T cells of 6 healthy donors; 1 hour 37° C. incubation
T8 construct: whole, on cells; also called CD3e; CD3ε
Experimental: Flow cytometry was used to evaluate the CD3 arm binding of C3CRB73 to CD3+ pan T cells from 6 different healthy human donors. C3CRB73 and NullxCD3 spFv were tested after 1 hour 37° C. incubation with pan T cells.

T3 sequence (P07766 other isoform, or with tags, fused parts or gaps): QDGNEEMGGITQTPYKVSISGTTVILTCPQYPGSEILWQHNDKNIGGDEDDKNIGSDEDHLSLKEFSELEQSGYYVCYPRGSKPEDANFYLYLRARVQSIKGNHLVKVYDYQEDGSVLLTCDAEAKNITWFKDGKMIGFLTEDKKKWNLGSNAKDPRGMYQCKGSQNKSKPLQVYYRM
Sequence of cyno FcRn (Q8SPV9 24-297 limits assumed, chain 1 of 2): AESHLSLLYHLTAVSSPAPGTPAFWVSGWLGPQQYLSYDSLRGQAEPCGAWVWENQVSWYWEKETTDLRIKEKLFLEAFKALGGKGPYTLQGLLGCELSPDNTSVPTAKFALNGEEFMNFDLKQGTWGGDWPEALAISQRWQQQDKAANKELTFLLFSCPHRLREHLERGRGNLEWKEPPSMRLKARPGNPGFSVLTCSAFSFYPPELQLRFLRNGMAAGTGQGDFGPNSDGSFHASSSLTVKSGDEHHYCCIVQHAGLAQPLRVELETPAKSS
Sequence of cyno FcRn (Q8SPW0 21-119 limits assumed, chain 2 of 2): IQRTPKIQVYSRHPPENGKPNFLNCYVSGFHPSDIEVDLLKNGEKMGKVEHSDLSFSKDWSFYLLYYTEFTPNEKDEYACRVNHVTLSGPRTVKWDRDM
T8 sequence (P07766 23-207): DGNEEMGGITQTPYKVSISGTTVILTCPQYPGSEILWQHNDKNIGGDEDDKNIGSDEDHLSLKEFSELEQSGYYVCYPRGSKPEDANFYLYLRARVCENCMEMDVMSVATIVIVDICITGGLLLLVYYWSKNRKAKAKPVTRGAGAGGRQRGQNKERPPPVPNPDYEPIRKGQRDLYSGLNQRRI
T5 sequence (P55899 24-297 limits assumed, chain 1 of 2): as the sequence (Q8SPV9 24-297 limits assumed, chain 1 of 2) above, with D39N, Q44E, S99G, G189S, N190S, M217L, T269S counted along it
T5 sequence (P61769 21-119 limits assumed, chain 2 of 2): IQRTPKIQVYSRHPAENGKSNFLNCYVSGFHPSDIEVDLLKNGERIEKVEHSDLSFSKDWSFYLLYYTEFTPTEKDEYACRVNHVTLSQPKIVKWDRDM

B1: C3CRB73 CALRmut x CD3 bispecific antibody (bispecific antibody, human IgG1, kappa, L234A L235A)
heavy: EVQLLESGGGLVQPGGSLRLSCAVSGIDLSNNAISWVRQAPGKGLEYVGVIGNTGDTYYADSAKGRFTISRDSSKTTLYLQMNSLRAEDTAVYFCVRGPPSYSSSVKNIWGQGTLVTVSSASTKGPSVFPLAPSSKSTSGGTAALGCLVKDYFPEPVTVSWNSGALTSGVHTFPAVLQSSGLYSLSSVVTVPSSSLGTQTYICNVNHKPSNTKVDKKVEPKSCDKTHTCPPCPAPEAAGGPSVFLFPPKPKDTLMISRTPEVTCVVVSVSHEDPEVKFNWYVDGVEVHNAKTKPREEQYNSTYRVVSVLTVLHQDWLNGKEYKCKVSNKALPAPIEKTISKAKGQPREPQVYTLPPSREEMTKNQVSLSCAVKGFYPSDIAVEWESNGQPENNYKTTPPVLDSDGSFFLVSKLTVDKSRWQQGNVFSCSVMHEALHNRFTQKSLSLSPGK
light: DIQMTQSPSSVSASVGDRVTITCQSSQSVYNNNWLSWLQQKPGKAPKRLIYDASKLESGVPSRFSGSGSGTDFTLTISSVQPEDAATYYCAGGFTGNVYTFGGGTKVEIKRTVAAPSVFIFPPSDEQLKSGTASVVCLLNNFYPREAKVQWKVDNALQSGNSQESVTEQDSKDSTYSLSSTLTLSKADYEKHKVYACEVTHQGLSSPVTKSFNRGEC
scFv: DIQMTQSPSSLSASVGDRVTITCRARQSIGTAIHWYQQKPGCAPKLLIKYASESISGVPSRFSGSGSGTDFTLTISSLQPEDFATYYCQQSGSWPYTFGQGTKLEIKGGGSGGSGGCPPCGGSGGEVQLVESGGGLVKPGGSLRLSCAASGFTFSRYNMNWVRQAPGKGLEWVSSISTSSNYIYYADSVKGRFTFSRDNAKNSLDLQMSGLRAEDTAIYYCTRGWGPFDYWGCGTLVTVSSEPKSSDKTHTCPPCPAPEAAGGPSVFLFPPKPKDTLMISRTPEVTCVVVSVSHEDPEVKFNWYVDGVEVHNAKTKPREEQYNSTYRVVSVLTVLHQDWLNGKEYKCKVSNKALPAPIEKTISKAKGQPREPQVYTLPPSREEMTKNQVSLWCLVKGFYPSDIAVEWESNGQPENNYKTTPPVLDSDGSFFLYSKLTVDKSRWQQGNVFSCSVMHEALHNHYTQKSLSLSPGK
notes: IgG1-AAS; also called JNJ-88549968; CALRB421 Fab x CD3 spFv
- % Active [1]: 100%
- Kd [1]: 0.0331 nM
- % Active [2]: 100%
- Kd [2]: 0.0602 nM
- % Active [3]: 100%
- Kd [3]: 0.214 nM
- cytotoxicity EC50, autologous assay, patient CALRmut CD34+ cells [4]: 0.94 nM
- cytotoxicity EC90, autologous assay, patient CALRmut CD34+ cells [4]: 7.58 nM
- maximal cytotoxicity, autologous assay, CD34+ cells of one donor without detected binding [4]: 68%
- maximum cytotoxicity, autologous assay, patient CALRmut CD34+ cells [4]: 69%
- T cell-mediated cytotoxicity EC50 (nM), ELF-153 MPL CALRins5 [5]: 0.094 nM
- T cell-mediated cytotoxicity EC50 (nM), OCI-M2 MPL CALRins5 [5]: 1.69 nM
- Kd [6]: 900 nM
- Kd [7]: 1900 nM
- binding result [8]: no binding (tested: 100 nM)
- EC50 (read off the curve) [9]: ~5 nM
- % CD25+ CD8 T cells EC50 (nM), CALRmut patient blood, ELF-153 MPL CALRins5 [10]: 1.68 nM
- % CD25+ CD8 T cells EC50 (nM), healthy donor blood, ELF-153 MPL CALRins5 [10]: 0.53 nM
- % CD69+ CD8 T cells EC50 (nM), CALRmut patient blood, ELF-153 MPL CALRins5 [10]: 1.08 nM
- % CD69+ CD8 T cells EC50 (nM), healthy donor blood, ELF-153 MPL CALRins5 [10]: 0.41 nM
- % CD25+ CD8 T cells EC50 (nM), CALRmut patient blood, ELF-153 MPL CALRdel52 [11]: 2.46 nM
- % CD25+ CD8 T cells EC50 (nM), healthy donor blood, ELF-153 MPL CALRdel52 [11]: 1 nM
- % CD69+ CD8 T cells EC50 (nM), CALRmut patient blood, ELF-153 MPL CALRdel52 [11]: 3.06 nM
- % CD69+ CD8 T cells EC50 (nM), healthy donor blood, ELF-153 MPL CALRdel52 [11]: 0.88 nM
- EC50 [12]: 23.8 nM

From patent US20260125457A1 (Janssen / Centocor, published 2026)
